Results taken from the DeepSol protein solubility set.

Test: soluble on expression in E. coli; label from the status in PepcDB or PDB records

| Sequence | soluble on expression in E. coli |
| --- | --- |
| MAHHHHHHMATLQVRDFDPRTATHYYHCILAGIPHPVTLQSISSAIVPDSECESVQNLEKIGCQIVPYRLHVFKETLSLKFGVVDFFIHHSTSGESANPAEVHELFLQWFGSSLTRGVMSLNSWISLGQPRELHSATPFVSALMEKCSFFDAKVVSDIEKLRTFILSKVRFDNRGLNAHANNRSRVAASEDSSLQEEQTRTDCGNDPSVEWKSVGTLSASSLDSQELAWLSRQHRQFPSIAPANEREASATWELEPVRTFLQKALTPLVEVVK | not soluble |
| MGSDKIHHHHHHMKFNTTIKRLQEAVNKVILAVPAKSLDARFDNINLTLENGMLTMFATDGELSITTNCDVASTDKGNIAIRARTLQDFLRSMYETDVTFDIERQSIGELGTIHIATDKGRYRIPCTFTTKPESQKRNFDLSIELQQNELQDMIHKTLFACSVDGMRPAMMGVLFEFDEEYITAVSTDGHRLVRCRKKPGVTVAEKQKIVVPARVLSIIQRMLTNEEVKMTIDSERRNVKFKTATMELESALIVEPYPNYEAVIPVENEKQLVTDRSQLHDSVKRVGRFSSIGDLKISAQDSQIKVMAENASEGESAQEELPCTFTGEEITIGFNAKFVEAALSHIETEQVSIEMSSPTTAVLFKPKYEERQDDLIILVMPVRINN | not soluble |
| MGHHHHHHSHMIKLENELLLVEMKEAGAELTRIFHKDTKLEYLWNADSTFWGRHSPVLFPTVGRLVEDTYFVDGNPYHLGQHGFARDRDFKVVEHTENAVRFELDADEDSLTIYPYKFKLSIIYTIEKDSVAVSYEVENTDNKRIYFSIGAHPAFNLPLADGTTFEDYYLDFGTEENLETLCLEGPYRSGKIEKVVNEPARYLPLSYDLFKNDALIFEGLKQKEITIKSDKTPHFVKVSFPEFPFVGVWTAKAGTPFLCIEPWYGIADGAGKSVELRDKAGIEHLEPEAVFASEYKITIG | soluble |
| VPDSSTALRILVYSDNVQTRERVMRALGKRLHPDLPDLTYVEVATGPMVIRQMDRGGIDLAILDGEATPTGGMGIAKQLKDELASCPPILVLTGRPDDTWLASWSRAEAAVPHPVDPIVLGRTVLSLLRAPAH | soluble |
| MGHHHHHHSHMGLSYQEELTLPFELCDVKSDIKLPLLLDYCLMVSGRQSAQLGRSNNNLLVDYKLVWIVTDYEITIHRLPHFQETIIIETKALSYNKFFCYRQFYIYDQEGGLLVDILAYFALLNPDTRKVATIPEDLVAPFETDFVKKLHRVPKMPLLEQSIDRDYYVRYFDIDMNGHVNNSKYLDWMYDVLGCEFLKTHQLLKMTLKYVKEVSPGGQITSSYHLDQLTSYHQIISDGQLNAQAMIEWRAIKPIESETD | not soluble |
| MGSDKIHHHHHHMDKYTALIHDENFSTLTLNVSRYPKSLAYWEKLLNYIVKASAPICKSTEPQLLKLIRCTYSSMLNEFPYLENYYIDFALLEYKLGNVSMSHKIFQRGLQAFNQRSLLLWTSYLKFCNNVISHQKQLFKKYETAEEYVGLHFFSGEFWDLYLEQISSRCTSSKKYWNVLRKILEIPLHSFSKFYALWLQRIDDIMDLKQLSQLTSKDELLKKLKIDINYSGRKGPYLQDAKKKLKKITKEMYMVVQYQVLEIYSIFESKIYINYYTSPETLVSSDEIETWIKYLDYTITLQTDSLTHLNFQRALLPLAHYDLVWIKYSKWLINSKNDLLGAKNVLLMGLKFSLKKTEIIKLLYSVICKLNEYVLLRNLLEKIESSYSDNVENVDDFEIFWDYLQFKTFCQNSLYSSRYSDSQSNGLLNKELFDKVWKRLSCKEKKSGQEILLNNLVQFYSKDTVEFVEKNIFQKIIEFGWEYYLQNGMFWNCYCRLIYFDTSRSYLDKRQYIVRKIWPQIDKKFAQSVLPSLTEFCESYFPEEMDTLEEMFTEEP | not soluble |
| MPDDKVPTVPDKGADGSPGSSFKNPEILSSQPSESMQAVYEILIQGNNLKTGLPSIVKSQEDLQTLYSVLYGNSLKAPLIDFSKKAVVIAAAGPFNTGGYSIVPVSAIKTGKIINLVFEVKSPGPKDMVTQAFTRPYVIVSVDAEPDTEIFIEINGDAKNDKLDF | not soluble |
| GMKTQITTRDLVLEFIHALNTENFPAAKKRLNENFTFNGPMGHREGSERYMNDMEKMKFKYVVHKMFEEGNDVCLIYDINMNGKTIAASGLYHLEKGEITSLHVYFDPRPLFEE | soluble |
| MKASFKGKFDVDKSGSVASLTFNAGNAKLRATMTDASFVAGPSFNGLSLAVEKPGFFIIDYNVPKKDVRFQFMNTIRIAEKPLNLTYIHMRGDNRTIVDGSFVIDPANKLSANYMVGTKNCKLKYTYVHGGIATFEPCYDVAKNMWDFAISHKLYGGDNLKATYQTSSKMLGLEWSNNSKSTGSFKVCASMNLAEELKPPKLTAETTWNLEL | soluble |
| SYELTQPPSVSVAPGKTARITCGGNNIGSKSVHWYQQKPGQAPVLVVYDDSDRPSGIPERFSGSNSGNTATLTISRVEAGDEADYYCQVWDSSSDYVFGTGTKVTVLGQPKANPTVTLFPPSSEEFQANKATLVCLISDFYPGAVTVAWKADGSPVKAGVETTKPSKQSNNKYAASSYLSLTPEQWKSHRSYSCQVTHEGSTVEKTVAPTECS | soluble |
| MGLVIYDTLARRKVPFEPAVPGHVGIYVCGPTVYADPHLGHARGPVVYDVLRRYLLHKGYKVRFVSNITDVGHLTDDADEGEDKIVRRAKLERLEPMEVAEKYTWSYFDAMQALNVLRPSIAPRASGHIPEMLELTERLLARGVAYERKGSVYFRVRSFPEYGKLSGKRLEELRAGARVEVREEKEDPLDFALWKAAEPGHIMRWKSPWGEGYPGWHIECTAMSLKYLGEGFDLHAGGIDLQFPHHECEIAQAEAAGFRFARHWMHHNHVLLEGEKMAKSTGNLVLLHDLLEAHEPMALRFYLLQTHYRSPMDFTWEGLESAKRGYGRLLHAYREVRGRKKTAPPGTTPELERALDALEKAFMEAIEDDLSTPEALAALFAFLPELHKLLPEAKAESLARAEAVFHTLGEGILGLFPERVLEERVSGPLLEGLIALLLELREEARRAKDYEKSDLIRERLRALGVIVEDTKEGPRWRLER | soluble |
| MARGMNHVYLIGALARDPELRYTGNGMAVFEATVAGEDRVIGNDGRERNLPWYHRVSILGKPAEWQAERNLKGGDAVVVEGTLEYRQWEAPEGGKRSAVNVKALRMEQLGTQPELIQDAGGGVRMSGAMNEVLVLGNVTRDPEIRYTPAGDAVLSLSIAVNENYQDRQGQRQEKVHYIDATLWRDLAENMKELRKGDPVMIMGRLVNEGWTDKDGNKRNSTRVEATRVEALARGAGNANSGYAAATPAAPRTQTASSAARPTSGGYQSQPSRAANTGSRSGGLDIDQGLDDFPPEEDDLPF | soluble |
| MYYGALSIRAEAWLIVSPEVTKIMAKEQTDRTTLDLFAHERRPGRPKTNPLSRDEQLRINKRNQLKRDKVRGLKRVELKLNAEAVEALNELAESRNMSRSELIEEMLMQQLAALRSQGIV | not soluble |
| SMHFVQQKVKVFRAADPLVGVFLWGVAHSINELSQVPPPVMLLPDDFKASSKIKVNNHLFHRENLPSHFKFKEYCPQVFRNLRDRFGIDDQDYLVSLTRNPPSESEGSDGRFLISYDRTLVIKEVSSEDIADMHSNLSNYHQYIVKCHGNTLLPQFLGMYRVSVDNEDSYMLVMRNMFSHRLPVHRKYDLKGSLVSREASDKEKVKELPTLRDMDFLNKNQKVYIGEEEKKIFLEKLKRDVEFLVQLKIMDYSLLLGIHDIIRGSEPEEEAPVREDESEVDGDCSLTGPPALVGSYGTSPEGIGGYIHSHRPLGPGEFESFIDVYAIRSAEGAPQKEVYFMGLIDILTQYDAKKKAAHAAKTVKHGAGAEISTVHPEQYAKRFLDFITNIFA | soluble |
| MGSDKIHHHHHHMSNHSSSIPELSDNGIRYYQTYNESLSLWPVRCKSFYISTRFGQTHVIASGPEDAPPLVLLHGALFSSTMWYPNIADWSSKYRTYAVDIIGDKNKSIPENVSGTRTDYANWLLDVFDNLGIEKSHMIGLSLGGLHTMNFLLRMPERVKSAAILSPAETFLPFHHDFYKYALGLTASNGVETFLNWMMNDQNVLHPIFVKQFKAGVMWQDGSRNPNPNADGFPYVFTDEELRSARVPILLLLGEHEVIYDPHSALHRASSFVPDIEAEVIKNAGHVLSMEQPTYVNERVMRFFNAETGISR | not soluble |
| MVRANGAVSLRELARVVQTSEVTVRRDVRALEAEGLLDRRHGGAVLPGGFTRESGFPQKSHLATAEKTAIADLAAGLVEEGEAIVVGAGTTTQELARRLARVPGLTVVTNSLLVAQALAHANRVEVVMTGGTLRGSNYALVGSGAEQSLQGLRVSKAFLSGSGLTAERGLSTSNMLSASVDRALVQAAAEVVVLADHSKLGTDTMFQTVPTDVITRLVTDESPGHDDRAATELQALADQGVQIAVAGASGGGTANGTGASGAPGGDSVGRQQRRDVPLPGPRRQVPGAAGAGLRSATALGEQGGGAERARVADMRRRLEHHHHHH | not soluble |
| MCMGTRSKRSERGRCRMHLERCVCPAIPRYDLTTRVVLVMHHREYPKPTATGPLALAALPNSELRIHGERDSLLDLGDLATPERRTLLLYPGDDVPVLTRELLERDRRPVTLVVPDGTWRQASRMGRRLPGLDHAEMVRLPEGLPTEWGIRRENHPQGLATFEAIARALGIIESPAVQTGLEELFRLMVRRTLSAGGRAILEHHHHHH | soluble |
| MKYSYVARQPILDREKRTIGYELLFRDGPKNTFPEVEPELATSRLLSDHFLSTHYNTLGNKLGFVNFPHQSLVNLVPTLFPKDSLVIEVLEDCEPTQELLDAIKHLHECGYRIALDDFVPTKAWKRFLPYVSMIKFDIRLVPIEKAAIFIQALSQFNIDFLAEKVETYEEFEQALDAGFNYFQGYFFSKPEMIQKKRLNPAFLTVIQLCKEIADKPIDFNEVERLFSIDVTLSYKLLTYVNSGYTLTTKIKSFRQALIYLGEERLRRFISLVAIASVQEDKPDSLYSLAIQRARMCEILLSQMKTKYDPGQAFLTGMFSLLGSLLDQPLSDVIEDIPVDEDIKLALTSRKGVLGYLLSMCIAYEQADWELAERYCSVLKLTETQLADAFNESTEWAQELLSQTP | not soluble |
| MSLFGTSTTAPAASTTPLFGSTAAAAPKPGGLFGAPAAAMSSGLFGASQTAPAPASAGLFGSTTAPTPASTSSVPLFGSTTTTASPSGGLFGAKTATTAAPAPTGGLFGASTAAPATGSLFGSTAPATGGLFGAKSTTSAAPTLGGGLFGSSTAPAAAATTSFGAPPATAAAPLGLGGIQQQNSSGGGLPNASGTATSSLTGTGDSKDASKDGEWTQAATLIRDLLPLIEDKFKKNREFMEETENMSIDNVAIEEQIDKTRGWIEEVRRDVLTATQSSERIAYLVSTDKTLCDTTKRVQEHSGSANQTTYMNAIKEHLAELCNFYGNDMDALQERVNFLRNRFEKLLTGEKSITMEELDAYFLRCDANVSNAHHHVTELGKEIEEIRDFLIEQGYTQLRKWSTTAASAAAPIASNSEMIVREGAEFFPSQSSLAIIGSSLRAPAAPAPAVGGLGLGTGTSLFGNTGTTSLFGSTATKPAFSGGSLFGATTSTATSSAAATTTTPTTSLFGSTKPATTTTPFASTVANNSSGLLFSSKK | not soluble |
| MHPMNILLKLPLKIPLMIIEKAREILEKHPLCNHCLGRMFAKLGKGTNEERGKAIRLILSMELNREVKEPENCELCQGIFRRMNELLDLVRNAVEDYEFQTFQIGSRFPKDILEKEKKIWEEFGITTGEPINREFNRELGKLFAKVTGKIPNRERPDIVIIVEPFSSKVELQVNPIYVAGRYRKLVRGIPQTPAPGFEESIATIICRVFKKNFRGKCIFKGAGREDVDVRTLGRGRPFVVEIKKPRKRKVDLKLIEEEINSSGKVEVLELKFITPEESEKILTARHKKIYEALVYVKDGVSAEEVEKVVKSLKGSEIKQRTPRRVLNSRADIVRVRRVYNVSGEYIDEHHFKLKLVTDGGLYIKELISGDKGRTKPSVSEILGKEAWCEILDVLDVLDGDENVEGDS | soluble |
